Data as given in patent US20140363427A1.

Tests used:
[1] = substrate: F protein of RSV B-wash (strain 18537) (respiratory syncytial virus B, strain 18537) (UniProt P13843); assay: cell-based or functional assay
[2] = substrate: F protein of RSV B-1 (respiratory syncytial virus B-1) (UniProt O36634); assay: cell-based or functional assay
F protein of RSV B-1 (respiratory syncytial virus B-1), sequence (O36634 26-574): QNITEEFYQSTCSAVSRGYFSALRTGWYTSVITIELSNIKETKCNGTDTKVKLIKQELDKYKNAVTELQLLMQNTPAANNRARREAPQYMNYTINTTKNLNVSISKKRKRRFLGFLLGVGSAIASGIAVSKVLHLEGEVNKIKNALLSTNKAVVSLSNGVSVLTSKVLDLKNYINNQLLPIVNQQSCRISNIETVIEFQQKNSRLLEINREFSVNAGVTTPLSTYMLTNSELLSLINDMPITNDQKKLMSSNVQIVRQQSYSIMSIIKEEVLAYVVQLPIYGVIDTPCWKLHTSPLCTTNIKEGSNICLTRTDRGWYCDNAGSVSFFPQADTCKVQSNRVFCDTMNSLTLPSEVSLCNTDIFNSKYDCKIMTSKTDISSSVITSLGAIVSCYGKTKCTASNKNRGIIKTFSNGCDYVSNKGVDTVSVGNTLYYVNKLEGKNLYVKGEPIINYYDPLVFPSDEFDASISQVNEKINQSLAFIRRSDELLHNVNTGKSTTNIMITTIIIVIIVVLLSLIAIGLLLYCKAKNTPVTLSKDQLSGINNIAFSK

F protein of RSV B-wash (strain 18537) (respiratory syncytial virus B, strain 18537), sequence (P13843 26-574): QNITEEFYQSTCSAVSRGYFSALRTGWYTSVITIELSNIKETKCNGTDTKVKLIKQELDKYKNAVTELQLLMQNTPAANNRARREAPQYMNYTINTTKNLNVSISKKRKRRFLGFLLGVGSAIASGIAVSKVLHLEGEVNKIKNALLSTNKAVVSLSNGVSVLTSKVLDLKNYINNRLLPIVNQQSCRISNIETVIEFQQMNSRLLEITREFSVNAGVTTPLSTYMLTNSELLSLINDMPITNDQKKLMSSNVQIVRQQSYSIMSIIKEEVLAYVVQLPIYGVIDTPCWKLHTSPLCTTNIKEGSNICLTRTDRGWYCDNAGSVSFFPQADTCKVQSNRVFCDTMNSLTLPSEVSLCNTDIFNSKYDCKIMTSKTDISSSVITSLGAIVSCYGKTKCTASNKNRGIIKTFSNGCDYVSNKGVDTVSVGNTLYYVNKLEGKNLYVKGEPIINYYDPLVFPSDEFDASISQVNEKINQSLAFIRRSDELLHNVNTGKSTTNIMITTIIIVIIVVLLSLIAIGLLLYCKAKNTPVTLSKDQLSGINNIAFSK

B1: IgG form of 90D3 (antibody, V domains shown)
VH: QVQLVESGGGLVKPGGSLRLSCVGSGFTLKNYEMNWVRQAPGQGLQYISYISSSGNVVKYVDSVQGRFTISRDNAGNSLYLQMNNLRAEDTATYYCVRGFSIDKYDSSVDEYWGQGIAVTVSS
VL: AIRLTQSPSSLSASVGDRVSITCRASQSISNFLNWYQQKPGRAPKLLISAASSLQGGVPSRFSGSGSGTDFTLTISSLQPEDFATYYCQQTYISLYTFGQGTKLEIKR
[1]
  ED50, plaque reduction, RSV B/wash: 1.4 nM
[2]
  ED50, plaque reduction, RSV B-1: 1.4 nM
